Target: the molecule itself
Assay: SEC

Protein | stoichiometry N
NaKΔ18 (domain or fragment, B. cereus) WKDKEFQVLFVLTILTLISGTIFYSTVEGLRPIDALYFSVVTLTTVGDGNFSPQTDFGKIFTILYIFIGIGLVFGFIHKLAVNVQLPSILSNRKKE | 4
NaKΔ18 L61T (domain or fragment, B. cereus, UniProt Q81HW2 19-114, looked up) WKDKEFQVLFVLTILTLISGTIFYSTVEGLRPIDALYFSVVTTTTVGDGNFSPQTDFGKIFTILYIFIGIGLVFGFIHKLAVNVQLPSILSNRKKE | 4
NaKΔ18 L61A (domain or fragment, B. cereus, UniProt Q81HW2 19-114, looked up) WKDKEFQVLFVLTILTLISGTIFYSTVEGLRPIDALYFSVVTATTVGDGNFSPQTDFGKIFTILYIFIGIGLVFGFIHKLAVNVQLPSILSNRKKE | 4
NaKΔ18 L35A+L61A (domain or fragment, B. cereus, UniProt Q81HW2 19-114, looked up) WKDKEFQVLFVLTILTAISGTIFYSTVEGLRPIDALYFSVVTATTVGDGNFSPQTDFGKIFTILYIFIGIGLVFGFIHKLAVNVQLPSILSNRKKE | 4
NaKΔ18 L35A (domain or fragment, B. cereus, UniProt Q81HW2 19-114, looked up) WKDKEFQVLFVLTILTAISGTIFYSTVEGLRPIDALYFSVVTLTTVGDGNFSPQTDFGKIFTILYIFIGIGLVFGFIHKLAVNVQLPSILSNRKKE | 4

Reference: publication doi:10.1101/2022.04.18.488652 (bioRxiv, 2022)
